Self-cleavage data for 57 variants are collected here from the RNAGym collection of RNA variant scans (doi:10.7554/elife.80360).

B1: Hammerhead Ribozyme (parent)
chain: ACCGGAUGUGCUUUCCGGUCUGAUGAGUCCGUGAGGACGAAACAG

This series covers variants of B1. The series is described as follows: self-cleavage, relative activity (ratio to wild type); higher = more cleavage; co-transcriptional.
For ACCGGAUGUGCUUUCCGGGCUGAUGUGUCCGUGAGGACGAAACAG, the self-cleavage is 0.332.

For ACCGGAUGUGCUUUCCGGGCUGAUGCGUCCGUGAGGACGAAACAG, the self-cleavage was found to be 0.323.

For the variant ACCGGAUGUGCUUUCCGGGCUGAUGGGUCCGUGAGGACGAAACAG, the self-cleavage was 0.319.

In the case of ACCGGAUGUGCUUUCCGGUAUGAUGAGUCCGUGCGGACGAAACAG, the self-cleavage amounted to 0.34.

As to ACCGGAUGUGCUUUCCGGGCUGCUGAGUCCGUGAGGACGAAACAG, the self-cleavage worked out at 0.346.

Regarding ACCGGAUGUGCUUUCCGGGCUGGUGAGUCCGUGAGGACGAAACAG, the self-cleavage was found to be 0.3.

Take ACCGGAUGUGCUUUCCGGGCUGUUGAGUCCGUGAGGACGAAACAG: the self-cleavage is 0.23.

Consider ACCGGAUGUGCUUUCCGGGCUGAUGAGGCCGUGAGGACGAAACAG, for which the self-cleavage is 0.355.

ACCGGAUGUGCUUUCCGGGCUGAUGAGCCCGUGAGGACGAAACAG: the self-cleavage came to 0.352.

Turning to ACCGGAUGUGCUUUCCGGGCUGAUGAGACCGUGAGGACGAAACAG, the self-cleavage was 0.411.

In the case of ACCGGAUGUGCUUUCCGGGCUGAUGAGUCCGUUAGGACGAAACAG, the self-cleavage came out at 0.411.

In the case of ACCGGAUGUGCUUUCCGGGCUGAUGAGUCCGUCAGGACGAAACAG, the self-cleavage came out at 0.426.

As to ACCGGAUGUGCUUUCCGGGCUGAUGAGUCCGUAAGGACGAAACAG, the self-cleavage was 0.551.

With ACCGGAUGUGCUUUCCGGGCUGAUGAGUGCGUGAGGACGAAACAG, the self-cleavage was 0.307.

With ACCGGAUGUGCUUUCCGGGCUGAUGAGUUCGUGAGGACGAAACAG, the self-cleavage was found to be 0.316.

As for ACCGGAUGUGCUUUCCGGGCUGAUGAGUACGUGAGGACGAAACAG, the self-cleavage worked out at 0.257.

Regarding ACCGGAUGUGCUUUCCGGCCUGAGGAGUCCGUGAGGACGAAACAG, the self-cleavage stood at 0.552.

With ACCGGAUGUGCUUUCCGGCCUGAAGAGUCCGUGAGGACGAAACAG, the self-cleavage turned out to be 0.776.

For ACCGGAUGUGCUUUCCGGCCUGACGAGUCCGUGAGGACGAAACAG, the self-cleavage came out at 0.682.

On to ACCGGAUGUGCUUUCCGGGCUGAUGAGUCCGUGCGGACGAAACAG, for which the self-cleavage is 0.349.

As for ACCGGAUGUGCUUUCCGGGCUGAUGAGUCCGUGUGGACGAAACAG, the self-cleavage was 0.289.

Turning to ACCGGAUGUGCUUUCCGGGCUGAUGAGUCCGUGGGGACGAAACAG, the self-cleavage amounted to 0.345.

ACCGGAUGUGCUUUCCGGGCUGAUGAGUCCGUGAGGACGAAACUG: the self-cleavage was 0.286.

Turning to ACCGGAUGUGCUUUCCGGGCUGAUGAGUCCGUGAGGACGAAACCG, the self-cleavage was 0.361.

For the variant ACCGGAUGUGCUUUCCGGGCUGAUGAGUCCGUGAGGACGAAACGG, the self-cleavage stood at 0.623.

For the variant ACCGGAUGUGCUUUCCGGUAUGAUGAGUCCGUGAGGACGAAACAG, the self-cleavage came out at 0.541.

Regarding ACCGGAUGUGCUUUCCGGCCUGAUGAGACCGUGAGGACGAAACAG, the self-cleavage stood at 0.524.

Consider ACCGGAUGUGCUUUCCGGCCUGAUGAGGCCGUGAGGACGAAACAG, for which the self-cleavage came to 0.435.

Regarding ACCGGAUGUGCUUUCCGGCCUGAUGAGCCCGUGAGGACGAAACAG, the self-cleavage amounted to 0.572.

In the case of ACCGGAUGUGCUUUCCGGCCCGAUGAGUCCGUGAGGACGAAACAG, the self-cleavage stood at 0.251.

Turning to ACCGGAUGUGCUUUCCGGCCAGAUGAGUCCGUGAGGACGAAACAG, the self-cleavage is 0.416.

For ACCGGAUGUGCUUUCCGGCCGGAUGAGUCCGUGAGGACGAAACAG, the self-cleavage was determined as 0.221.

For the variant ACCGGAUGUGCUUUCCGGGCUGAUGAGUCCGUGAGGACGAAACAG, the self-cleavage amounted to 0.437.

In the case of ACCGGAUGUGCUUUCCGGCCUGAUGAGUCCGUGAGCACGAAACAG, the self-cleavage worked out at 0.427.

For ACCGGAUGUGCUUUCCGGCCUGAUGAGUCCGUGAGUACGAAACAG, the self-cleavage was found to be 0.443.

With ACCGGAUGUGCUUUCCGGCCUGAUGAGUCCGUGAGAACGAAACAG, the self-cleavage stood at 0.475.

In the case of ACCGGAUGUGCUUUCCGGCCUGAUGAGUCCGUGAGGACGAAACAC, the self-cleavage came out at 0.519.

ACCGGAUGUGCUUUCCGGCCUGAUGAGUCCGUGAGGACGAAACAA: the self-cleavage was found to be 0.384.

For ACCGGAUGUGCUUUCCGGCCUGAUGAGUCCGUGAGGACGAAACAU, the self-cleavage was 0.439.

Regarding ACCGGAUGUGCUUUCCGGGCUGAUGAGUCCGUGAGGCCGAAACAG, the self-cleavage was 0.331.

Take ACCGGAUGUGCUUUCCGGGCUGAUGAGUCCGUGAGGGCGAAACAG: the self-cleavage is 0.3.

Take ACCGGAUGUGCUUUCCGGGCUGAUGAGUCCGUGAGGUCGAAACAG: the self-cleavage was found to be 0.339.

On to ACCGGAUGUGCUUUCCGGGCUGAUGAGUCCGGGAGGACGAAACAG, for which the self-cleavage came to 0.371.

Take ACCGGAUGUGCUUUCCGGGCUGAUGAGUCCGAGAGGACGAAACAG: the self-cleavage is 0.366.

Regarding ACCGGAUGUGCUUUCCGGGCUGAUGAGUCCGCGAGGACGAAACAG, the self-cleavage came out at 0.449.

Regarding ACCGGAUGUGCUUUCCGGGCUGAUGAGUCCGUGACGACGAAACAG, the self-cleavage is 0.308.

For ACCGGAUGUGCUUUCCGGGCUGAUGAGUCCGUGAAGACGAAACAG, the self-cleavage was 0.282.

In the case of ACCGGAUGUGCUUUCCGGGCUGAUGAGUCCGUGAUGACGAAACAG, the self-cleavage was 0.397.

Regarding ACCGGAUGUGCUUUCCGGGCUGAUGAGUCCGUGAGGACGAAACAA, the self-cleavage turned out to be 0.424.

With ACCGGAUGUGCUUUCCGGGCUGAUGAGUCCGUGAGGACGAAACAU, the self-cleavage was determined as 0.389.

For the variant ACCGGAUGUGCUUUCCGGGCUGAUGAGUCCGUGAGGACGAAACAC, the self-cleavage came out at 0.312.

With ACCGGAUGUGCUUUCCGGGCUGAUGAUUCCGUGAGGACGAAACAG, the self-cleavage was 0.292.

For the variant ACCGGAUGUGCUUUCCGGGCUGAUGAAUCCGUGAGGACGAAACAG, the self-cleavage was 0.301.

Consider ACCGGAUGUGCUUUCCGGGCUGAUGACUCCGUGAGGACGAAACAG, for which the self-cleavage was found to be 0.288.

For the variant ACCGGAUGUGCUUUCCGGGCUGAUGAGUCCGUGAGGACGCAACAG, the self-cleavage is 0.294.

As to ACCGGAUGUGCUUUCCGGGCUGAUGAGUCCGUGAGGACGUAACAG, the self-cleavage is 0.323.

ACCGGAUGUGCUUUCCGGGCUGAUGAGUCCGUGAGGACGGAACAG: the self-cleavage was found to be 0.384.
